According to patent publication US20020155547A1 (Biogen, published 2002):
Where a chain is given by its changes, count along the chain named.

T1: IFNAR2/Fc fusion protein (extracellular domain of the human IFNAR2 receptor chain fused to the hinge, CH2 and … (human, UniProt P48551 27-243))
T1 construct: extracellular domain; also called IFNAR2-ectodomain/Fc fusion protein; IFNAR/Fc; not shown: human IgG1 heavy chain constant region: hinge, CH2 and CH3 domains
T1 sequence (looked up): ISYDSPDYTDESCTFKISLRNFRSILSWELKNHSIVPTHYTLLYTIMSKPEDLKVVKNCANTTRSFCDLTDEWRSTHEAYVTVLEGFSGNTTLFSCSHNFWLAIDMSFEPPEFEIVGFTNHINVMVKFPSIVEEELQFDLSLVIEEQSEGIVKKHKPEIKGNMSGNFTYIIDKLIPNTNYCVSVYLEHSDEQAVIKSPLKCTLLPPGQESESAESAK

T2: type I interferon cell surface receptor complex (IFNAR1/2 complex) expressed on Daudi Burkitt's lymphoma cells (human, UniProt P17181 28-557; P48551 27-515)
T2 construct: whole, on cells; Both chains together comprise the receptor for interferon-beta on the cells of the FACS assay; also called IFNAR1/2 cell surface receptor; cognate receptor on Daudi cells
T2 sequence (looked up) 1: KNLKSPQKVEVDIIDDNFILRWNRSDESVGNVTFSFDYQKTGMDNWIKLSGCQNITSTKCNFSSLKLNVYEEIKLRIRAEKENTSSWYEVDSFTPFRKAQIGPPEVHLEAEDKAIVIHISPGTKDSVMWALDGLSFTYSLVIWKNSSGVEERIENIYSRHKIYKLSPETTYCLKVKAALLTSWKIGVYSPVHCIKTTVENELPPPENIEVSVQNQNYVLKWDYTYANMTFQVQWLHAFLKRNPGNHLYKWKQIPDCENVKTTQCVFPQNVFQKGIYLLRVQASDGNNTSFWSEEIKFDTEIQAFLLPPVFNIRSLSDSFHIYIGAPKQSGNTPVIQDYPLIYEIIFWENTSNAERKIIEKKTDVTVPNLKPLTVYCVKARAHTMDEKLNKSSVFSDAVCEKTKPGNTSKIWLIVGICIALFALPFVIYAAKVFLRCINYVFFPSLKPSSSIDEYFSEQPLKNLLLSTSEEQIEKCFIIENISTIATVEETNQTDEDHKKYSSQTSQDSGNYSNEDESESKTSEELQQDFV
T2 sequence (looked up) 2: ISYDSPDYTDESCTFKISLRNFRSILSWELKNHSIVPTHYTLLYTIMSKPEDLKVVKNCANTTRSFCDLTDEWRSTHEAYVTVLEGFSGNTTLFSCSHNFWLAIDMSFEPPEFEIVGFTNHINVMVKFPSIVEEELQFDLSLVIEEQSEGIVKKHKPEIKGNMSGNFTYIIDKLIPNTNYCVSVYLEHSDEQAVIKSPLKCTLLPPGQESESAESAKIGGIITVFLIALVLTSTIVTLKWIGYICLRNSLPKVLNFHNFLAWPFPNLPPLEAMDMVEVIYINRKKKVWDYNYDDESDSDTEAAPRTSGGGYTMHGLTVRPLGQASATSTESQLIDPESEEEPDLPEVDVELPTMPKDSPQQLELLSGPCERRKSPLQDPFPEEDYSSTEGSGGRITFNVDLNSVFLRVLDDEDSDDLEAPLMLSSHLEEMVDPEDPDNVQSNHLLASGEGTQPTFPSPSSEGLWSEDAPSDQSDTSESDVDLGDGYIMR

B1: histidine tagged wild-type interferon-beta-1a (ligand)
chain: SGGHHHHHHSSGDDDDKMSYNLLGFLQRSSNFQCQKLLWQLNGRLEYCLKDRMNFDIPEEIKQLQQFQKEDAALTIYEMLQNIFAIFRQDSSSTGWNETIVENLLANVYHQINHLKTVLEEKLEKEDFTRGKLMSSLHLKRYYGRILHYLKAKEYSHCAWTIVRVEILRNFYFINRLTGYLRN
modifications: glycosylated at Asn 80 of the interferon-beta moiety (expressed in human EBNA 293 cells)
notes: Tested as conditioned medium of transfected EBNA 293 cells; also called his IFN-beta; His6-tagged
B2: his tagged interferon-beta alanine substitution mutant A2 (ligand)
chain: B1 chain with F32A, Q33A, Q35A, K36A, W39A, Q40A
modifications: glycosylated at Asn 80 of the interferon-beta moiety
notes: also called A2 helix
B3: his tagged interferon-beta alanine substitution mutant AB1 (ligand)
chain: B1 chain with L45A, E46A, Y47A, L49A, K50A
modifications: glycosylated at Asn 80 of the interferon-beta moiety
B4: his tagged interferon-beta alanine substitution mutant AB2 (ligand)
chain: B1 chain with M53A, N54A, D56A, E59A
modifications: glycosylated at Asn 80 of the interferon-beta moiety
B5: his tagged interferon-beta alanine substitution mutant E (ligand)
chain: B1 chain with V165A, R169A, Y172A, N175A
modifications: glycosylated at Asn 80 of the interferon-beta moiety
notes: also called E helix

Tests used:
[1] = target: T1, IFNAR2/Fc fusion protein (extracellular …); test: ELISA on captured IFNAR2-Fc; wild type is the reference (100 %), its EC50 is not given
Procedure: The receptor binding properties of the Interferon-beta mutants described in C were assessed using two different binding assays. One assay measured binding of the interferon-beta mutants to a fusion protein, IFNAR2/Fc, comprising the extracellular domain of the human IFNAR2 receptor chain fused to part of the constant region of a human IgG. IFNAR2-Fc was expressed in chinese hamster ovary (CHO) cells and purified by protein A sepharose affinity chromatography according to the instructions of the manufacturer (Pierce Chem. Co., Rockford, Ill., catalog #20334). The binding of interferon-beta mutants to IFNAR2-Fc was measured in an ELISA format assay. […] Binding of the interferon-beta mutants to IFNAR2-Fc was measured by adding 50 μl/well mutant interferon-beta in conditioned media, serially diluted in Dulbecco's Modified Eagle's Medium (DMEM) supplemented with 10% fetal bovine serum, and incubating for 2 hours at 4° C. […] After washing, interferon-beta bound to the plates was detected by adding 50 μl/well of a cocktail consisting of a 1:1000 dilution of a rabbit polyclonal anti-interferon antibody (#447, Biogen, Inc.) plus horseradish peroxidase (HRP)-labelled donkey anti-rabbit IgG (Jackson ImmunoResearch), and incubating for 15 minutes at 4° C. […]

[2] = target: T2, type I interferon cell surface receptor …; test: FACS receptor binding assay on Daudi cells; wild type is the reference (100 %), its value is not given
Procedure: A second receptor binding assay was used to measure the affinity with which the interferon-beta mutants bound to Daudi cells expressing both receptor chains, IFNAR1 and IFNAR2, which together comprise the receptor for interferon-beta. This FACS-based assay used a blocking monoclonal antibody directed against the extracellular domain of IFNAR1, EA12 (Biogen, Inc.), to distinguish unoccupied (free) receptor from receptor to which interferon-beta was bound. Daudi cells (20 μl at 2.5×10⁷ cells/ml) were placed in 96-well V-bottom ELISA plates, and incubated for 1 hour at 4° C. with various concentrations of interferon-beta mutant (20 μl in FACS buffer; 5% FBS, 0.1% NaN₃ in PBS). Desirable serial dilutions of interferon-beta mutants ranged from 0.5 μM down to 0.5 pM. To each well was added 100 ng of biotinylated murine anti-IFNAR1 monoclonal antibody EA12 (10 μl), and the plates incubated for an additional 2 minutes at room temperature before being washed twice with FACS buffer (4° C.). […] The samples were then analyzed by flow cytometry on a FACScan (Becton Dickinson). […]

[3] = target: T1, IFNAR2/Fc fusion protein (extracellular …); test: ELISA on captured IFNAR2-Fc
Procedure: FIG. 3. Binding of alanine substituted interferon-beta mutants to a dimeric fusion protein comprised of the extracellular domain of the type I interferon receptor chain, IFNAR2/Fc. The binding affinities of the alanine substituted IFN mutants (A1-E) for the IFNAR2 receptor chain were determined as described in Example 1 (subsection D). The histogram presents their binding affinities in this assay relative to wild type his-IFN-beta (% w.t.). The % w. t. values were calculated as the (affinity of wild type his-IFN-beta)/(affinity of mutant IFN-beta)×100. The % w. t. (x) for multiple assays (n=3) and an average % w.t. (x) for the experimental set are shown.
(§1) The receptor binding properties of the Interferon-beta mutants described in C were assessed using two different binding assays. One assay measured binding of the interferon-beta mutants to a fusion protein, IFNAR2/Fc, comprising the extracellular domain of the human IFNAR2 receptor chain fused to part of the constant region of a human IgG. IFNAR2-Fc was expressed in chinese hamster ovary (CHO) cells and purified by protein A sepharose affinity chromatography according to the instructions of the manufacturer (Pierce Chem. Co., Rockford, Ill., catalog #20334). The binding of interferon-beta mutants to IFNAR2-Fc was measured in an ELISA format assay. ELISA plates were prepared by coating flat-bottomed 96 well plates overnight at 4° C. with 50 μl/well of mouse anti-human IgG1 monoclonal antibody (CDG5-AA9, Biogen, Inc.) at 10 μg/ml in coating buffer (50 mM NaHCO₃, 0.2 mM MgCl₂, 0.2 mM CaCl₂, pH 9.6). Plates were washed twice with PBS containing 0.05% Tween-20, and blocked with 0.5% non-fat dry milk in PBS for 1 hour at room temperature. After two more washes, 50 μl of 1 μg/ml IFNAR2-Fc in 0.5% milk in PBS containing 0.05% Tween-20 was added to each well and incubated for 1 hour at room temperature, and the plates were then washed twice more.

[4] = target: T1, IFNAR2/Fc fusion protein (extracellular …); test: ELISA, IFNAR2-Fc captured on anti-human IgG1 antibody, mutant in conditioned medium
Procedure: as §1, with “more. Binding of the interferon-beta mutants to IFNAR2-Fc was measured by adding 50 μl/well mutant interferon-beta in conditioned media, serially diluted in Dulbecco's Modified Eagle's Medium (DMEM) supplemented with 10% fetal bovine serum, and incubating for 2 hours at 4° C. Dilutions of interferon-beta mutant typically ranged from approximately 1 μM down to 10 pM. After washing, interferon-beta bound to the plates was detected by adding 50 μl/well of a cocktail consisting of a 1:1000 dilution of a rabbit polyclonal anti-interferon antibody (#447, Biogen, Inc.) plus horseradish peroxidase (HRP)-labelled donkey anti-rabbit IgG (Jackson ImmunoResearch), and incubating for 15 minutes at 4° C. After two washes, HRP substrate was added, and the plate was incubated at 4° C. before being read on an ELISA plate reader at an absorbance of 450 nm. Data were plotted as absorbance versus the concentration of mutant interferon-beta, and the affinity for the binding of the mutant interferon-beta to IFNAR2-Fc was determined by fitting the data to a simple hyperbolic binding equation.” for “more.”

| Binder | binding result [1] | binding result [2] | concentration tested relative to the w.t. his-IFN-beta EC50 [3] [fold] | binding result [4] |
| --- | --- | --- | --- | --- |
| B1 | binds | binds | – | – |
| B2 | – | – | 500 | no binding |
| B3 | – | – | 500 | no binding |
| B4 | – | – | 500 | no binding |
| B5 | – | – | 500 | no binding |
